Assay in all cases: pulldown
Series [1] concerns the target T1, PK26404.1 L183S (Cannabis sativa) (UniProt A0A7J6ELY7).
T1 sequence: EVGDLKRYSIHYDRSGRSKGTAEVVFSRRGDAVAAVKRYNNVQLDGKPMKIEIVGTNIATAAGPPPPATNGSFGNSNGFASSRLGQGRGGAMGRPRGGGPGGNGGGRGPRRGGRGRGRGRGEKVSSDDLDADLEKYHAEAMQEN
The conditions noted are these: 20 nM protein, 1.5 uM RNA pool; 20 mM HEPES pH 7.8, 70 mM KCl, 10 mM NaCl, 10% glycerol, 2 mM DTT, 0.1 ug/uL BSA; 30 min, 4 C.

Another series concerns the target hnrnpa0l (Danio rerio) (UniProt A0ACM8Q088). Particulars: 20 nM protein, 1.5 uM RNA pool; 20 mM HEPES pH 7.8, 70 mM KCl, 10 mM NaCl, 10% glycerol, 2 mM DTT, 0.1 ug/uL BSA; 30 min, 4 C.
The target in series [2] is T2, rsp-2 (Caenorhabditis elegans) (UniProt Q23120).
T2 sequence: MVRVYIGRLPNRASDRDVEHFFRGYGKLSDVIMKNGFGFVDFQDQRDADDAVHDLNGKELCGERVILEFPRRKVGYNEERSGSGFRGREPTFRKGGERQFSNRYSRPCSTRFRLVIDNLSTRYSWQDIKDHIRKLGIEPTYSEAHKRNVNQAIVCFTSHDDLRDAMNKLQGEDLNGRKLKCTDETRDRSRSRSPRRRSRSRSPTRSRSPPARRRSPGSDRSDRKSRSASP
The conditions noted are these: 20 nM protein, 1.5 uM RNA pool; 20 mM HEPES pH 7.8, 70 mM KCl, 10 mM NaCl, 10% glycerol, 2 mM DTT, 0.1 ug/uL BSA; 30 min, 4 C.

A further series addresses HNRNPA1 (Homo sapiens) (UniProt P09651). Particulars: 20 nM protein, 1.5 uM RNA pool; 20 mM HEPES pH 7.8, 70 mM KCl, 10 mM NaCl, 10% glycerol, 2 mM DTT, 0.1 ug/uL BSA; 30 min, 4 C (protocol of this paper; not …); cited from earlier work.
The target of series [3] is T3, PK04894.1 Y197N (Cannabis sativa) (UniProt A0A803PQ48).
T3 sequence: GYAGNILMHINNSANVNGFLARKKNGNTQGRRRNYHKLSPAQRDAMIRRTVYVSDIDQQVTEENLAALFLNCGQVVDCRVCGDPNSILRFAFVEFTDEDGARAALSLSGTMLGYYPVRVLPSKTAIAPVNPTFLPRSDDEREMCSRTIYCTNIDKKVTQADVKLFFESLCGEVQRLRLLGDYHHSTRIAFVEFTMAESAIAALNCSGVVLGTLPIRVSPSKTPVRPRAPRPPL
The conditions noted are these: 20 nM protein, 1.5 uM RNA pool; 20 mM HEPES pH 7.8, 70 mM KCl, 10 mM NaCl, 10% glycerol, 2 mM DTT, 0.1 ug/uL BSA; 30 min, 4 C.

Series [4] has as its target T4, CBG15837 R479I (Caenorhabditis briggsae) (UniProt A8XMX3).
T4 sequence: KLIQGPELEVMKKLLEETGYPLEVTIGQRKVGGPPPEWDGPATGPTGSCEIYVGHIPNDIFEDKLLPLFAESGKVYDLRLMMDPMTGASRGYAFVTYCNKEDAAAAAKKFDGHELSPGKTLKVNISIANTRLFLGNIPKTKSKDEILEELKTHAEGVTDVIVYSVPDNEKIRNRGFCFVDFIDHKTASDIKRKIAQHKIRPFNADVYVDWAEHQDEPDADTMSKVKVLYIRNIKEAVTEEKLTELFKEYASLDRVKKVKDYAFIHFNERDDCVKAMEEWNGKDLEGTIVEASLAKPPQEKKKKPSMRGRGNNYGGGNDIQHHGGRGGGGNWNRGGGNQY
The conditions noted are these: 20 nM protein, 1.5 uM RNA pool; 20 mM HEPES pH 7.8, 70 mM KCl, 10 mM NaCl, 10% glycerol, 2 mM DTT, 0.1 ug/uL BSA; 30 min, 4 C.

Series [5] addresses T5, PK15181.1 (Cannabis sativa) (UniProt A0A7J6E558).
T5 sequence: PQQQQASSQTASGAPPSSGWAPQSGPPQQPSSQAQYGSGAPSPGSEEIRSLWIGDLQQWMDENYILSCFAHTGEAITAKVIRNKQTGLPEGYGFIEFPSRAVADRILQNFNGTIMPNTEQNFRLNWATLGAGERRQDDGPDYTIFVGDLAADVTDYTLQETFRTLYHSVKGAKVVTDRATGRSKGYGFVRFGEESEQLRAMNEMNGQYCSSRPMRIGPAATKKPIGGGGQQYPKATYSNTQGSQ
Particulars: 20 nM protein, 1.5 uM RNA pool; 20 mM HEPES pH 7.8, 70 mM KCl, 10 mM NaCl, 10% glycerol, 2 mM DTT, 0.1 ug/uL BSA; 30 min, 4 C.

Series [6] deals with T6, DDB_G0286331 (Dictyostelium discoideum) (UniProt Q54M41).
T6 sequence: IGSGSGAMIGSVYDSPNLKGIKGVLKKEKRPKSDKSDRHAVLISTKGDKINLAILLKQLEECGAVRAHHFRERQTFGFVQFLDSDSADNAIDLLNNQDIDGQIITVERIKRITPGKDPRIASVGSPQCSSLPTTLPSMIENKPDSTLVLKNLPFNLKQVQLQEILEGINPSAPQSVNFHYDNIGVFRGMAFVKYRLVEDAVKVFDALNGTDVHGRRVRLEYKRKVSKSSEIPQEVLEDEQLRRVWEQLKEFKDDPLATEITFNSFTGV
Particulars: 20 nM protein, 1.5 uM RNA pool; 20 mM HEPES pH 7.8, 70 mM KCl, 10 mM NaCl, 10% glycerol, 2 mM DTT, 0.1 ug/uL BSA; 30 min, 4 C.

The subject of series [7] is T7, PK15111.1 (Cannabis sativa).
T7 sequence: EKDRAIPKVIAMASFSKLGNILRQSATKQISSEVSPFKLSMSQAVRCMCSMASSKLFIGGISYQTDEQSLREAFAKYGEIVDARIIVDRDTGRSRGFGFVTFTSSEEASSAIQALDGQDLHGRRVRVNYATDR
The conditions noted are these: 20 nM protein, 1.5 uM RNA pool; 20 mM HEPES pH 7.8, 70 mM KCl, 10 mM NaCl, 10% glycerol, 2 mM DTT, 0.1 ug/uL BSA; 30 min, 4 C.

The target in series [8] is T8, CBG14639 (Caenorhabditis briggsae) (UniProt A8XKC4).
T8 sequence: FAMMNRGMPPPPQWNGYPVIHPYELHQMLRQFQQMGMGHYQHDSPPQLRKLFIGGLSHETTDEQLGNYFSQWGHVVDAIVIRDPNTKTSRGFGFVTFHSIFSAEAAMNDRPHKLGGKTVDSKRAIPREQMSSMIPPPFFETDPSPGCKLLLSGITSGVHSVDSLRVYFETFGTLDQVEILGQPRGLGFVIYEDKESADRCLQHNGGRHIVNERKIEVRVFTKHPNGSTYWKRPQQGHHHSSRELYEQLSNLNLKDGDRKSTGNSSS
Particulars: 20 nM protein, 1.5 uM RNA pool; 20 mM HEPES pH 7.8, 70 mM KCl, 10 mM NaCl, 10% glycerol, 2 mM DTT, 0.1 ug/uL BSA; 30 min, 4 C.

Chain of HNRNPA1 (Homo sapiens) (P09651 1-226): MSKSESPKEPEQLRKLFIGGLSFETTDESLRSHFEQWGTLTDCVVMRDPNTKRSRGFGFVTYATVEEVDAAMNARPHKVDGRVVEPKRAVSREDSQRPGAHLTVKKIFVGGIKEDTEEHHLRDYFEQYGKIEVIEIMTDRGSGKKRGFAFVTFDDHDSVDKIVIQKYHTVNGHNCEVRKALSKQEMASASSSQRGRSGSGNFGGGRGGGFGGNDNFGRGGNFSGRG
Chain of hnrnpa0l (Danio rerio) (A0ACM8Q088 entry or part of it): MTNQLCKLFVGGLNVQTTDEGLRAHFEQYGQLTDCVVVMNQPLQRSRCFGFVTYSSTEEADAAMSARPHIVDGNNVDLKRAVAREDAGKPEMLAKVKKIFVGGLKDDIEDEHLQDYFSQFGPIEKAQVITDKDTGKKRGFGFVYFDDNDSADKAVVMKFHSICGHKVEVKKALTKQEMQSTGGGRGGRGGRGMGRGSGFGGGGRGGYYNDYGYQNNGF

In [1], GCGCGC [RNAcompete motif RNCMPT00364] yielded a binding signal (z-score (mean of top ten 7-mers)) of 6.8.
In the series with hnrnpa0l (Danio rerio), AUAGGA [RNAcompete motif RNCMPT00340] gave a binding signal (z-score (mean of top ten 7-mers)) of 10.9.
Turning to GGAGGAG [RNAcompete motif RNCMPT00352], the binding signal (z-score (mean of top ten 7-mers)) in [2] came out at 9.21.
As to UAGGGA [RNAcompete motif RNCMPT00022], the binding signal (z-score (mean of top ten 7-mers)) in the series with HNRNPA1 (Homo sapiens) was 10.
AAUAAG [RNAcompete motif RNCMPT00346] registered a binding signal (z-score (mean of top ten 7-mers)) in series [3] of 15.1.
Take AAAAAUUU [RNAcompete motif RNCMPT00344]: the binding signal (z-score (mean of top ten 7-mers)) in [4] turned out to be 9.1.
Turning to UUUUUU [RNAcompete motif RNCMPT00345], the binding signal (z-score (mean of top ten 7-mers)) in [5] is 9.71.
The sequence AUAAAC [RNAcompete motif RNCMPT00351] gave a binding signal (z-score (mean of top ten 7-mers)) in [6] of 8.36.
In turn, AAGUAGA [RNAcompete motif RNCMPT00368] displayed a binding signal (z-score (mean of top ten 7-mers)) in [7] of 6.73.
On to AUUAGG [RNAcompete motif RNCMPT00331], for which the binding signal (z-score (mean of top ten 7-mers)) in [8] amounted to 8.86.

Source of the values: paper PMC12990809.
